T1: Fus1, P11710
T1 sequence (P11710 432-512, looked up): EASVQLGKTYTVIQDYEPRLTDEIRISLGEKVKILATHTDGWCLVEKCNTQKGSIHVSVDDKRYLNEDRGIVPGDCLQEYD

T2: Hse1, P38753
T2 sequence (P38753 208-285, looked up): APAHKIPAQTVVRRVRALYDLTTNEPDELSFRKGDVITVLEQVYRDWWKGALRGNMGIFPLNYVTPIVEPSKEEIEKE

T3: Lsb4, P32793
T3 sequence (P32793 402-468, looked up): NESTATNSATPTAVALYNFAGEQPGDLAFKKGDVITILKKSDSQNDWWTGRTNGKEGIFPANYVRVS

T4: Myo5, Q04439
T4 sequence (Q04439 1072-1160, looked up): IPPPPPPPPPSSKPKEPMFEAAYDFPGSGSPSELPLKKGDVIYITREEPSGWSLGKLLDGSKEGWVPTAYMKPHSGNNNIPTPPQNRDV

T5: Bbc1, P47068
T5 sequence (P47068 1-78, looked up): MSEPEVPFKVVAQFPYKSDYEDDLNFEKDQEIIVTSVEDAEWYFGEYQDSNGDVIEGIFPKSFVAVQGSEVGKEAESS

T6: Bzz1-1, P38822
T6 sequence (P38822 478-572, looked up): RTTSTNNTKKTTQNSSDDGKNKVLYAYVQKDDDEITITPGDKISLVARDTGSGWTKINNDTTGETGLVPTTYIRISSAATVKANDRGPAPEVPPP

T7: Boi1, P38041
T7 sequence (P38041 1-86, looked up): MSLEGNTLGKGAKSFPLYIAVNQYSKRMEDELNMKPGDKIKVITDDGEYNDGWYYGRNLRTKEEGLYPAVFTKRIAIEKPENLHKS

T8: Abp1, P15891
T8 sequence (P15891 535-592, looked up): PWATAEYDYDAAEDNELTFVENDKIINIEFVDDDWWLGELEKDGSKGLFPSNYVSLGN

T9: Bud14, P27637
T9 sequence (P27637 247-328, looked up): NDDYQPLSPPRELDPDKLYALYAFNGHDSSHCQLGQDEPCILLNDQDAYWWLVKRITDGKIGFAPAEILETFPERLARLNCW

T10: Lsb1, P53281
T10 sequence (P53281 45-122, looked up): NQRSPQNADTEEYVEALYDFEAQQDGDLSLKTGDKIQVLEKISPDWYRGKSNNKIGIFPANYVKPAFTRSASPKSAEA

T11: Boi2, P39969
T11 sequence (P39969 32-116, looked up): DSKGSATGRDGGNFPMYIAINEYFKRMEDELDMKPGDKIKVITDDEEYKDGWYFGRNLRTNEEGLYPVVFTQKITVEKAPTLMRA

T12: Lsb3, P43603
T12 sequence (P43603 385-451, looked up): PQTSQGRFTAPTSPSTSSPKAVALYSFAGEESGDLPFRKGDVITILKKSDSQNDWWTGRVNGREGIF

T13: Cyk3, Q07533
T13 sequence (Q07533 1-83, looked up): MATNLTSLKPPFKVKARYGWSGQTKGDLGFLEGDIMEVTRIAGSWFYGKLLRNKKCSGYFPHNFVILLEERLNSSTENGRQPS

T14: Hof1, Q05080
T14 sequence (Q05080 590-669, looked up): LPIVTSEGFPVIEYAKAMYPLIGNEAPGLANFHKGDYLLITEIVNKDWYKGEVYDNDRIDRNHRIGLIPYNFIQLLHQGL

T15: Sla1-2, P32790
T15 sequence (P32790 60-140, looked up): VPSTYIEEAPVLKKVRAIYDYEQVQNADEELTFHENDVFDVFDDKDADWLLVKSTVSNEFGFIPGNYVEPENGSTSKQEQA

T16: Nbp2, Q12163
T16 sequence (Q12163 103-180, looked up): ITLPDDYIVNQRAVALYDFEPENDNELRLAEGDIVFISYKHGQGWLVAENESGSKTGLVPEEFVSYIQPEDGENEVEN

T17: Cdc25, P04821
T17 sequence (P04821 50-136, looked up): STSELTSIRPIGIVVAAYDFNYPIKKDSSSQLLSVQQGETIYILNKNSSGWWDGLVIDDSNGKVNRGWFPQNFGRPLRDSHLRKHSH

T18: Sla1-3, P32790
T18 sequence (P32790 344-424, looked up): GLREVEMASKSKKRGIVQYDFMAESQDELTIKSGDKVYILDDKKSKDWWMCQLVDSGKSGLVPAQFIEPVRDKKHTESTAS

T19: Bzz1-2, P38822
T19 sequence (P38822 568-633, looked up): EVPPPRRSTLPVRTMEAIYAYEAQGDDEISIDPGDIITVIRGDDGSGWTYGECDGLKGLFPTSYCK

T20: Pin3, Q06449
T20 sequence (Q06449 53-122, looked up): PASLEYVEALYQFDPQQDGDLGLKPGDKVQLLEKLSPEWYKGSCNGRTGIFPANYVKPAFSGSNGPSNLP

T21: Pex13, P80667
T21 sequence (P80667 295-386, looked up): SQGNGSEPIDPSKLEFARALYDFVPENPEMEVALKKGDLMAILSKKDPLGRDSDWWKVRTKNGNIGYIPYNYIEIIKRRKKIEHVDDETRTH


What was measured:
Test in all cases: SPOT array
Fus1, P11710 = target: T1, Fus1, P11710; conditions: median of control spots 1200
Hse1, P38753 = target: T2, Hse1, P38753; conditions: median of control spots 1727
Sho1, P40073 = conditions: median of control spots 1148
Sequence of Sho1, P40073 (P40073 287-367): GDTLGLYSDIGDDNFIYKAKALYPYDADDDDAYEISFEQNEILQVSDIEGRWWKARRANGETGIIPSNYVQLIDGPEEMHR

Lsb4, P32793 = target: T3, Lsb4, P32793; conditions: median of control spots 397
Myo5, Q04439 = target: T4, Myo5, Q04439; conditions: median of control spots 471
Bbc1, P47068 = target: T5, Bbc1, P47068; conditions: median of control spots 796
Bzz1-1, P38822 = target: T6, Bzz1-1, P38822; conditions: median of control spots 4446
Boi1, P38041 = target: T7, Boi1, P38041; conditions: median of control spots 1162
Myo3, P36006 = conditions: median of control spots 468
Abp1, P15891 = target: T8, Abp1, P15891; conditions: median of control spots 935
Bud14, P27637 = target: T9, Bud14, P27637; conditions: median of control spots 956
Lsb1, P53281 = target: T10, Lsb1, P53281; conditions: median of control spots 388
Boi2, P39969 = target: T11, Boi2, P39969; conditions: median of control spots 1161
Lsb3, P43603 = target: T12, Lsb3, P43603; conditions: median of control spots 406
Bem1-1, P29366 = conditions: median of control spots 4282
Sequence of Bem1-1, P29366 (P29366 55-141): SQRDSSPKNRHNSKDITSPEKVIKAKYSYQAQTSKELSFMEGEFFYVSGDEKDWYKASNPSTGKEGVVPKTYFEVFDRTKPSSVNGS

Cyk3, Q07533 = target: T13, Cyk3, Q07533; conditions: median of control spots 1451
GST = conditions: median of control spots 978
Hof1, Q05080 = target: T14, Hof1, Q05080; conditions: median of control spots 4086
Bem1-2, P29366 = conditions: median of control spots 4347
Sequence of Bem1-2, P29366 (P29366 139-227): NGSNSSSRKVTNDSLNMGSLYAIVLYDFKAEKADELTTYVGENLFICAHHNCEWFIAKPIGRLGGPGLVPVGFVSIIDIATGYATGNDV

Sla1-2, P32790 = target: T15, Sla1-2, P32790; conditions: median of control spots 712
Nbp2, Q12163 = target: T16, Nbp2, Q12163; conditions: median of control spots 357
Cdc25, P04821 = target: T17, Cdc25, P04821; conditions: median of control spots 969
Sla1-3, P32790 = target: T18, Sla1-3, P32790; conditions: median of control spots 5475
Bzz1-2, P38822 = target: T19, Bzz1-2, P38822; conditions: median of control spots 4538
Pin3, Q06449 = target: T20, Pin3, Q06449; conditions: median of control spots 2171
Rvs167, P39743 = conditions: median of control spots 2707
Sequence of Rvs167, P39743 (P39743 419-482): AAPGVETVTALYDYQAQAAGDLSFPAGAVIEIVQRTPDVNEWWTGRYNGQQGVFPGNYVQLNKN

Pex13, P80667 = target: T21, Pex13, P80667; conditions: median of control spots 1341

Row | Binder | SPOT intensity (Fus1, P11710) | SPOT intensity (Hse1, P38753) | SPOT intensity (Sho1, P40073) | SPOT intensity (Lsb4, P32793) | SPOT intensity (Myo5, Q04439) | SPOT intensity (Bbc1, P47068) | SPOT intensity (Bzz1-1, P38822) | SPOT intensity (Boi1, P38041) | SPOT intensity (Myo3, P36006) | SPOT intensity (Abp1, P15891) | SPOT intensity (Bud14, P27637) | SPOT intensity (Lsb1, P53281) | SPOT intensity (Boi2, P39969) | SPOT intensity (Lsb3, P43603) | SPOT intensity (Bem1-1, P29366) | SPOT intensity (Cyk3, Q07533) | SPOT intensity (GST) | SPOT intensity (Hof1, Q05080) | SPOT intensity (Bem1-2, P29366) | SPOT intensity (Sla1-2, P32790) | also measured
1 | SPLGAPPPPPHKDHL | 0 | 0 | 1 | 0 | 81 | 0 | 0 | 1 | 327 | 0 | 0 | 0 | 0 | 0 | 0 | 0 | 1 | 0 | 0 | 0 | SPOT intensity (Nbp2, Q12163): 0; SPOT intensity (Cdc25, P04821): 0; SPOT intensity (Sla1-3, P32790): 0; SPOT intensity (Bzz1-2, P38822): 0; SPOT intensity (Pin3, Q06449): 0; SPOT intensity (Rvs167, P39743): 2; SPOT intensity (Pex13, P80667): 0
2 | RTRRRPPPPPIPSTQ | 13 | 63 | 83 | 69 | 243 | 434 | 1470 | 1 | 487 | 212 | 16 | 800 | 0 | 56 | 0 | 3 | 1 | 8 | 79 | 3 | SPOT intensity (Nbp2, Q12163): 107; SPOT intensity (Cdc25, P04821): 3; SPOT intensity (Sla1-3, P32790): 1980; SPOT intensity (Bzz1-2, P38822): 2960; SPOT intensity (Pin3, Q06449): 10; SPOT intensity (Rvs167, P39743): 99; SPOT intensity (Pex13, P80667): 21
3 | NPTKSPPPPPSPSTM | 1 | 0 | 2 | 4 | 223 | 0 | 124 | 0 | 436 | 28 | 2 | 0 | 0 | 0 | 1 | 1 | 1 | 0 | 0 | 0 | SPOT intensity (Nbp2, Q12163): 0; SPOT intensity (Cdc25, P04821): 3; SPOT intensity (Sla1-3, P32790): 1; SPOT intensity (Bzz1-2, P38822): 253; SPOT intensity (Pin3, Q06449): 109; SPOT intensity (Rvs167, P39743): 0; SPOT intensity (Pex13, P80667): 43

Further lines, with some results ahead:

Row | SPOT intensity (Fus1, P11710) | SPOT intensity (Hse1, P38753) | SPOT intensity (Sho1, P40073) | SPOT intensity (Lsb4, P32793) | SPOT intensity (Myo5, Q04439) | SPOT intensity (Bbc1, P47068) | SPOT intensity (Bzz1-1, P38822) | SPOT intensity (Boi1, P38041) | SPOT intensity (Myo3, P36006) | SPOT intensity (Abp1, P15891) | SPOT intensity (Bud14, P27637) | SPOT intensity (Lsb1, P53281) | SPOT intensity (Boi2, P39969) | SPOT intensity (Lsb3, P43603) | SPOT intensity (Bem1-1, P29366) | SPOT intensity (Cyk3, Q07533) | SPOT intensity (GST) | SPOT intensity (Hof1, Q05080) | SPOT intensity (Bem1-2, P29366) | SPOT intensity (Sla1-2, P32790) | Binder | also measured
4 | 0 | 12 | 0 | 0 | 559 | 0 | 0 | 0 | 537 | 0 | 0 | 0 | 0 | 0 | 0 | 0 | 1 | 51 | 89 | 0 | APPLPPTAPPPPSLP | SPOT intensity (Nbp2, Q12163): 0; SPOT intensity (Cdc25, P04821): 2; SPOT intensity (Sla1-3, P32790): 3; SPOT intensity (Bzz1-2, P38822): 0; SPOT intensity (Pin3, Q06449): 0; SPOT intensity (Rvs167, P39743): 0; SPOT intensity (Pex13, P80667): 4
5 | 0 | 0 | 0 | 0 | 443 | 0 | 0 | 0 | 483 | 0 | 2 | 0 | 0 | 0 | 0 | 0 | 0 | 0 | 0 | 0 | PPIPNAPLSPAPAVP | SPOT intensity (Nbp2, Q12163): 0; SPOT intensity (Cdc25, P04821): 2; SPOT intensity (Sla1-3, P32790): 0; SPOT intensity (Bzz1-2, P38822): 1; SPOT intensity (Pin3, Q06449): 0; SPOT intensity (Rvs167, P39743): 0; SPOT intensity (Pex13, P80667): 1
6 | 0 | 0 | 0 | 0 | 108 | 0 | 0 | 0 | 245 | 0 | 0 | 0 | 0 | 0 | 0 | 0 | 1 | 0 | 0 | 0 | MSPLGAPPPPPHKDH | SPOT intensity (Nbp2, Q12163): 0; SPOT intensity (Cdc25, P04821): 0; SPOT intensity (Sla1-3, P32790): 0; SPOT intensity (Bzz1-2, P38822): 1; SPOT intensity (Pin3, Q06449): 0; SPOT intensity (Rvs167, P39743): 0; SPOT intensity (Pex13, P80667): 0

From paper PMC2756588
